Experimental data published in publication PMC3428728.

Tested on: hSWI/SNF complex (FLAG-tagged) (Homo sapiens (HeLa))
Test: competition
Conditions: scale: fold preference over macroH2A nucleosome

20/60 H2A nucleosome gave a binding signal of 9.
